For the assay, the target named is T1, His-tagged KEAP1 (C-terminal amino acids 312-624, containing the Kelch domain) (human, UniProt Q14145 312-624).
T1 construct: plasmid by Tsingke Biotechnology; also called His-KEAP1; Kelch domain of KEAP1; source: E. coli BL21 (DE3), purified (Ni-NTA column, gel filtration)
Nature of the assay: pull-down; His pulldown, competition: 10 µg His-KEAP1 on His immunomagnetic beads, mixed with NRF2 and 5 or 10 µg DDRGK1 protein at 4 °C overnight, washed three times, immunoblot. The conditions noted are these: both partners purified.

T1 sequence (Q14145 312-624): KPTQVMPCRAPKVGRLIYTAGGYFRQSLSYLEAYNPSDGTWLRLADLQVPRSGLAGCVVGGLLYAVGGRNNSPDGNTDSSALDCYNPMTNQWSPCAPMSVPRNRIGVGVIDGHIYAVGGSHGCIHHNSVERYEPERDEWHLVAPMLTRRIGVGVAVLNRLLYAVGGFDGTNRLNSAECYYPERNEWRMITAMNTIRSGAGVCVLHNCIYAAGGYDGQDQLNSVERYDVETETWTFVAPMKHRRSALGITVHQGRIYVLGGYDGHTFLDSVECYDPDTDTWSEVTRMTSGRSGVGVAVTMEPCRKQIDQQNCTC

B1: GST-tagged NRF2 (N-terminal amino acids 1-84, containing domains interacting with KEAP1) (domain or fragment, human, UniProt Q16236 1-84, looked up)
chain: MMDLELPPPGLPSQQDMDLIDILWRQDIDLGVSREVFDFSQRRKEYELEKQKKLEKERQEQLQKEQEKAFFAQLQLDEETGEFL
notes: N-terminal domain (residues 1-84) of human NRF2; plasmid by Tsingke Biotechnology; also called GST-NRF2; NRF2 protein; source: E. coli BL21 (DE3), purified (GSH column, gel filtration)
B1: the binding result is reported as “binds”.

These data come from PMC10190621 (Advanced Science, 2023).
